Target: Acinetobacter baumannii AdeJ multidrug efflux pump (Acinetobacter baumannii AB0057)
Assay: cryo-EM structure; single-particle cryo-EM of 10 uM AdeJ-nanodisc (MSP 1E3D1, E. coli total lipid extract) incubated with 20 uM TP-6076 for 1 h; 2.91 Å; asymmetric trimer of access, binding and extrusion protomers

Substance “Acinetobacter baumannii AdeJ multidrug efflux pump (natural protein)” has a stoichiometry N of 3.
